Measured values: patent US20090305281, “NOVEL INHIBITORS OF RETROVIRAL REVERSE TRANSCRIPTACE” (THE CURATORS OF THE UNIVERSITY OF MISSOURI, published 2009)

Columns and labels:
[1] = biological target: T1, HIV-1 reverse transcriptase (HXB2, group M subtype B) (Human immunodeficiency virus 1, UniProt P04585 SEQ:1-560); test: inhibition; DDDP, K+ buffer; conditions: tags: expressed in E. coli
Method: (§1) Reactions were assembled in reaction buffer (50 mM Tris-HCl pH 8.3, 75 mM KCl, 5 mM MgCl2, 10 mM DTT) with 30 nM primer, 45 nM template and 0.2 mM dNTPs. After annealing primer and template strands, DNA aptamers were added. Reactions were initiated by adding RT to a final concentration of 3 nM active site. […] Additional reactions included 1 μM and 3 μM where indicated. After 10 min at 37° C., reactions were quenched by addition of 2 volumes (20 μl) of gel-loading buffer (95% formamide with 0.01% bromophenol blue). For reactions assessing monovalent ion dependence, 75 mM KCl was replaced with 75 mM NaCl where indicated.

[2] = biological target: T1, HIV-1 reverse transcriptase (HXB2, …); test: inhibition; DDDP, K+ buffer; conditions: tags: expressed in E. coli; remark: listed apart in the source
Method: FIG. 13 Sequence plasticity of stems and loops. Inhibition of RT DDDP activity by aptamer variants. Aptamer concentrations (nM) are indicated above the lanes. (A) Aptamer TKQ4 retains inhibition even though it carries a G-to-A mutation in the fourth of the 12 G's that comprise the quadruplex. […] Similar titrations were carried out in triplicate for all aptamers for which IC50 values are reported. Aptamer R1T was included in subsequent panels to provide a consistent reference baseline of inhibition. (C) RT inhibition by aptamer SN, in which quadruplex loops are replaced with hexaethylene glycol. (D) and (E), RT inhibition by aptamers carrying mutations in helical stem domain, as detailed in text.
as §1

[3] = biological target: T1, HIV-1 reverse transcriptase (HXB2, …); test: inhibition; DDDP, K+ buffer; p136 states not significantly different from L1; conditions: tags: expressed in E. coli; hairpin + G4, T16 connector
Method: as §1

[4] = hairpin + G4, termini within quadruplex

B1: RT6-B (Vor) (ssDNA)
DNA: CGCCTGATTAGCGATACTCAGGCGTTAGGGAAGGGCGTCGAAAGCAGGGTGGG
Binder B1 has an IC50 ([1]; hairpin + G4) of 5.7 nM.

GGGTGGGTTCGCCTGATTAGCGATACTCAGGCGTTGGGTGGG (ssDNA) [Acut] gave an IC50 ([1]; hairpin + G4, termini between 2nd and 3rd G triplets) of 22 nM.

In the case of CGCCTGATTAGCGATACTCAGGCGTTGGGCGGGCGGGCGGG (ssDNA) [R1C], the IC50 ([2]; hairpin + G4) is reported as 26 nM.

With CCGGACTCATAGCGATTAGTCCGGTTGGGTGGGTGGGTGGG (ssDNA) [Srevstem] the IC50 ([2]; hairpin + G4) was 26 nM.

CGCCTGATTAGCGATACTCAGGCGTTTTTTTTGGGTGGGTGGGTGGG (ssDNA) [L4] showed an IC50 ([1]; hairpin + G4, T8 connector) of 28 nM.

With CGCCTGACCCTTCAGGCGTTGGGTGGGTGGGTGGG (ssDNA) [S4] the IC50 ([2]; hairpin (CCCT tetraloop) + G4) was 32 nM.

Work on GGGTGGGTTGCGGACTCATAGCGATTAGTCCGCTTGGGTGGG (ssDNA) [Acutrev] yielded an IC50 [1, 4] of 33 nM.

For CGCCTGATTAGCGATACTCAGGCGTTGGGTTTTGGGTTTTGGGTTTTGGG (ssDNA) [R4T], the IC50 ([2]; hairpin + G4) was about 35 nM.

B2: RT6 (ssDNA)
DNA: ATCCGCCTGATTAGCGATACTCAGGCGTTAGGGAAGGGCGTCGAAAGCAGGGTGGGACTTGAGCAAAATCACCTGCAGGG
For B2, the IC50 ([1]; hairpin + G4) was 36 nM.

B3: ZAM1 (ssDNA)
DNA: CGCCTGATTAGCGCGCGCCGCGTTTTCGCGGCGCGCGCTACTCAGGCGTTGGGTGGGTGGGTGGG
Binder B3 has an IC50 ([2]; hairpin (22 bp) + G4) of 10 nM.

GGGTTCGCCTGATTAGCGATACTCAGGCGTTGGGTGGGTGGG (ssDNA) [Bcut] was tested, and the IC50 [1, 4] was 48 nM.

For CGTGATTAGCGATACTCACGTTGGGTGGGTGGGTGGG (ssDNA) [S1], the IC50 ([2]; hairpin + G4) was 59 nM.

For GGGTGGGTGGGTTCGCCTGATTAGCGATACTCAGGCGTTGGG (ssDNA) [Ecut], the IC50 [1, 4] was 99 nM.

Work on CGGATTAGCGATACTCCGTTGGGTGGGTGGGTGGG (ssDNA) [S2] yielded an IC50 ([2]; hairpin + G4) of 110 nM.

B4: L10 (ssDNA)
DNA: CGCCTGATTAGCGATACTCAGGCGTTTTTTTTTTTTTTTTGGGTGGGTGGGTGGG
B4 showed an IC50 [3] of 120 nM.

Work on CGCCTGATTAGCGATACTCAGGCGTTGGGTTGGGTTGGGTTGGG (ssDNA) [R2T] yielded an IC50 ([2]; hairpin + G4) of 13 nM.

Binder CGCCTGATTAGCGATACTCAGGCGAAGGGTGGGTGGGTGGG (ssDNA) [L6] has an IC50 ([1]; hairpin + G4, A2 connector) of 13 nM.

Work on CGCCTGATTAGCGATACTCAGGCGTTTTGGGTGGGTGGGTGGG (ssDNA) [L3] yielded an IC50 ([1]; hairpin + G4, T4 connector) of 13 nM.

With CGCCTGATTAGCGATACTCAGGCGTTGGGTGGGTGGGTGGG (ssDNA) [R1T] the IC50 ([1]; hairpin + G4) was 14 nM.

B5: RT6-A (ssDNA)
DNA: ATCCGCCTGATTAGCGATACTCAGGCGTTAGGGAAGGGTAGCGATACAGGGTGGG
In the case of B5, the IC50 ([1]; hairpin + G4) is reported as 16 nM.

CGCCTGATTAGCGATACTCAGGCGTTGGGAGGGAGGGAGGG (ssDNA) [R1A] showed an IC50 ([2]; hairpin + G4) of 18 nM.

B6: R8T (ssDNA)
DNA: CGCCTGATTAGCGATACTCAGGCGTTGGGTTTTTTTTGGGTTTTTTTTGGGTTTTTTTTGGG
B6 gave an IC50 ([2]; hairpin + G4) of 20 nM.
